Where two headings read alike, the source gives them in different places.
Key:
[1] = target: MtHPt1 (histidine-containing phosphotransfer protein 1 of Medicago truncatula) with N-terminal His6-MBP fusion (Medicago truncatula); assay: BLI; His6-MBP-MtHPt1 (104 nM) immobilised on Ni-NTA sensors; MtCRE1-IC at 2.5, 5, 10, 20 nM; SEC buffer (25 mM HEPES pH 7.5, 50 mM NaCl, 100 mM KCl, 1 mM TCEP) with 10% Kinetic Buffer, with 0.5 mM ATP and 2 mM MgCl2; 25°C; global 1:1 fit
[2] = target: MtHPt1 (histidine-containing phosphotransfer protein 1 of Medicago truncatula) with N-terminal His6-MBP fusion (Medicago truncatula); assay: as above; remark: listed apart in the source
[3] = target: the molecule itself; assay: native gel or EMSA; Native-PAGE of AtCRE1-REC compared with monomeric PR-10 proteins of similar calculated pI
[4] = target: the molecule itself; assay: crystal structure; MtCRE1-REC-Ca, 2.5 Å, space group P3(1)21, one subunit in the asymmetric unit, dimer by a crystallographic twofold; Ca2+ bound
[5] = target: the molecule itself; assay: crystal structure; AtCRE1-REC-K, 2.15 Å, space group P2(1)2(1)2, two subunits in the asymmetric unit; K+ bound

Sequence of MtHPt1 (histidine-containing phosphotransfer protein 1 of Medicago truncatula) with N-terminal His6-MBP fusion (Medicago truncatula) (main, as listed by the source): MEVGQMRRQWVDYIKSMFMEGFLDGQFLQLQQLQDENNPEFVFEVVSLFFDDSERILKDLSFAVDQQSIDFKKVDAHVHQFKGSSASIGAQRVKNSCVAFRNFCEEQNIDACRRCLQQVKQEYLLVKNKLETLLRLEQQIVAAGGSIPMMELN

With “MtCRE1-IC (intracellular domain of Medicago truncatula CRE1, Ile352-Ser1003) (from UniProt G7LCC3 352-1003) (domain or fragment)” as the molecule, how does the Kd [1] read?
The Kd was 12 nM.

And the Kd [2]?
Its Kd is 12 to 54 nM.

B1: AtCRE1-REC, complete receiver domain Leu918-Ser1057 (Arabidopsis thaliana CRE1/AHK4) (domain or fragment)
chain: SNALLTGKKILVVDDNIVNRRVAAGALKKFGAEVVCAESGQVALGLLQIPHTFDACFMDIQMPQMDGFEATRQIRMMEKETKEKTNLEWHLPILAMTADVIHATYEECLKSGMDGYVSKPFEEENLYKSVAKSFKPNPISPSS
notes: Ser-Asn-Ala cloning artifact at the N-terminus (vector pMCSG68); AHK4/CRE1/WOL, Arabidopsis thaliana, receiver domain Leu918-Ser1057; numbers count on: UniProt Q9C5U0-2; also called AtCRE1-REC-Mg; source: E. coli BL21 Gold, purified (Ni-NTA, TEV, Superdex75)
B1 was tested. Which “stoichiometry N” value [3] did it give?
The value was 2.

B2: MtCRE1-REC (receiver domain of cytokinin receptor CRE1 from Medicago truncatula) (domain or fragment, UniProt G7LCC3 856-994, looked up)
chain: SLLFGKKILVVDDNVVNRRVAAGALKNFGADVKCADSGKAALEMLQFPHKFDACFMDIQMPEMDGFEATRRIREMERTANEETNSECGERKSEFHLPILAMTADVIHATYEECLKCGMDGYVSKPFEEENLYQAVAKFF
notes: Made by proteolysis, not cloned as a domain; residues 936-948 are missing in the map; also called MtCRE1-REC-Ca; source: recombinant MtCRE1-IC from E. coli, limited proteolysis with thermolysin, purified (Superdex 75)
Does B2 bind [4]?
Result: binds

B3: AtCRE1-REC, C-terminally truncated receiver domain Leu918-Phe1048 (Arabidopsis thaliana CRE1/AHK4) (domain or fragment)
chain: SNALLTGKKILVVDDNIVNRRVAAGALKKFGAEVVCAESGQVALGLLQIPHTFDACFMDIQMPQMDGFEATRQIRMMEKETKEKTNLEWHLPILAMTADVIHATYEECLKSGMDGYVSKPFEEENLYKSVAKSF
notes: cloning linker at the N-terminus (vector pMCSG68); Ser-Asn-Ala is printed for the longer construct from the same vector, Asn916-Ala917 of the linker are named for this one; AHK4/CRE1/WOL, Arabidopsis thaliana, receiver domain with a 9-residue C-terminal truncation, Leu918-Phe1048; numbers count on: UniProt Q9C5U0-2; also called AtCRE1-REC-K; source: Magic E. coli strain, purified (Ni-NTA, TEV, …)
Does B3 bind [5]?
Result: binds
